B1: Pistol ribozyme (parent)
chain: GGGUCGUUGUUCCAUAAUCGCGUGGAUAUGGCACGCAAGUUUCUACCGGGCACCGUAAAUGUCCGACUGGAGCCGUUCGGGCGGCUAUAAACAGACCUCAGGCCCGAAGCGUGGCGGCACCUGCCGCCGGUGGUAAAAAAGAUCGGAAGAGCACACGUCU

Variants of: B1
Test: aptazyme ON/OFF ratio, guanine; higher = stronger switching; co-transcriptional cleavage with and without guanine

Variant	aptazyme ON/OFF ratio
U7G U8A U10A U11A C12A C13U	1.08
U7G U8A U10A U11A C12A C13A	1.21
U7G U8A U10A U11A C12A C13G	1.18
U7G U8A G9U U11A C12U C13A	1.02
U7G U8A G9U U11A C12U C13G	1.07
U7G U8A G9U U11A C12U C13U	1.07
U7G U8A G9U U11G C12A C13G	1.05
U7G U8A G9U U11G C12A C13U	1.09
U7G U8A G9U U11G C12A C13A	1.09
U7G U8A G9U U11A C13A	1.09
U7G U8A G9U U11A C13G	1.02
U7G U8A G9U U11A C13U	1.11
U7G U8A G9U U11G C12G C13A	1.01
U7G U8A G9U U11G C12G C13U	1.06
U7G U8A G9U U11G C12G C13G	1.03
U7G U8A G9U U10G U11C C12G C13G	1.03
U7G U8A G9U U10G U11C C12G C13U	1.21
U7G U8A G9U U10G U11C C12G C13A	1.09
U7G U8A G9U U10C C12U C13G	1.04
U7G U8A G9U U10C C12U C13U	1.03
U7G U8A G9U U10C C12U C13A	1.12

Variant	aptazyme ON/OFF ratio
U7G U8A G9U U10A U11A C12A C13U	1.04
U7G U8A G9U U10A U11A C12A C13A	1.13
U7G U8A G9U U10A U11A C12A C13G	1.08
U7G U8A G9U U10A U11C C13A	1.04
U7G U8A G9U U10A U11C C13G	1.02
U7G U8A G9U U10A U11C C13U	1.02
U7G U8A G9U U10G C12U C13G	1.03
U7G U8A G9U U10G C12U C13A	1.05
U7G U8A G9U U10G C12U C13U	1.13
U7G U8A G9U C12U C13U	1.07
U7G U8A G9U C12U C13G	1.07
U7G U8A G9U C12U C13A	1.06
U7G U8A G9U U10C U11G C12A C13U	1.11
U7G U8A G9U U10C U11G C12A C13A	1.08
U7G U8A G9U U10C U11G C12A C13G	1.05
U7G U8A G9U U10C U11G C13G	1.09
U7G U8A G9U U10C U11G C13U	1.09
U7G U8A G9U U10C U11G C13A	1.1
U7G U8A G9U U10C U11A C13U	1.08
U7G U8A G9U U10C U11A C13G	1.05
U7G U8A G9U U10C U11A C13A	1.1

Variant	aptazyme ON/OFF ratio
U7G U8A U10A C13A	1.2
U7G U8A U10A C13G	1.44
U7G U8A U10A C13U	1.25
U7G U8A G9U U10G U11C C12U C13U	1.08
U7G U8A G9U U10G U11C C12U C13G	1.17
U7G U8A G9U U10G U11C C12U C13A	1.07
U7G U8A G9U	2.15
U7G U8A G9U U11G C13U	1.07
U7G U8A G9U U11G C13G	1.02
U7G U8A G9U U11G C13A	1.07
U7G U8A G9U U10G C13G	1.19
U7G U8A G9U U10G C13A	1.35
U7G U8A G9U U10G C13U	1.21
U7G U8A U10A U11G	2.46
U7G U8A U10A U11C	0.988
U7G U8A U10A U11A	2.2
U7G U8A G9U U10A U11C C12G	1.09
U7G U8A G9U U10A U11C C12U	1.03
U7G U8A G9U U10A U11C C12A	1.07
U7G U8A G9U U10A U11A C13G	1.02
U7G U8A G9U U10A U11A C13U	1.07

Variant	aptazyme ON/OFF ratio
U7G U8A G9U U10A U11A C13A	1.13
U7G U8A U10A U11A C12U C13U	1.31
U7G U8A U10A U11A C12U C13A	1.22
U7G U8A U10A U11A C12U C13G	1.29
U7G U8A G9U U11C C12U C13U	1.02
U7G U8A G9U U11C C12U C13G	1.15
U7G U8A G9U U11C C12U C13A	1.1
U7G U8A U10A U11C C12U C13U	1.19
U7G U8A U10A U11C C12U C13A	1.18
U7G U8A U10A U11C C12U C13G	1.23
U7G U8A G9U U10A U11G C12G C13A	1.13
U7G U8A G9U U10A U11G C12G C13U	1.08
U7G U8A G9U U10A U11G C12G C13G	1.15
U7G U8A G9U U10G U11C C12U	1.05
U7G U8A G9U U10G U11C C12G	1.1
U7G U8A G9U U10G U11C C12A	1.14
U7G U8A G9U U10C U11A C12A C13U	1.09
U7G U8A G9U U10C U11A C12A C13A	1.14
U7G U8A G9U U10C U11A C12A C13G	1.06
U7G U8A G9U U10G U11A C12G C13A	1.03

Source: the RNAGym collection of RNA variant scans (doi:10.1021/acssynbio.7b00057)
